In US20140377288A1 (University of Texas, published 2014):

Molecular target: T1, GST-hEphA5 (1-72 aa) (human, UniProt P54756 304-375)
T1 construct: also called first 72 amino acids of the region 304-467 of the hEphA5 protein fused to GST; not shown: Glutathione S-transferase (GST) fusion partner
T1 sequence: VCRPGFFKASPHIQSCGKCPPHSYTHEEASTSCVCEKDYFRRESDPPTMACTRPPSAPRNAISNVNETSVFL
Test: ELISA with decreasing amount of 11C12 on GST fusion proteins
Description: FIG. 10: Further 11C12 epitope mapping on human EphA5. ELISA assays were performed with decreasing amount of 11C12 antibody in the presence of various portions of human EphA5 fused to GST. GST fusion proteins included EphA5 sequence from the regions corresponding to amino acids 304-467 (SEQ ID NO:3) and are numbered relative to this region. GST fusion proteins included GST-hEphA5 (1-24 aa) (SEQ ID NO:4); GST-hEphA5 (1-48 aa) (SEQ ID NO:5); GST-hEphA5 (1-72 aa) (SEQ ID NO:6); GST-hEphA5 (1-95 aa) (SEQ ID NO:7); GST-hEphA5 (1-120 aa) (SEQ ID NO:8); GST-hEphA5 (1-144 aa) (SEQ ID NO:9); and GST-hEphA5 (1-164 aa) (SEQ ID NO:10).
Epitope mapping was performed with protein fragments of human EphA5. […] This region is provided as SEQ ID NO:3. Further epitope mapping was performed by ELISA using fusion proteins including EphA5 sequences within the 304-467 region (FIG. 10).

B1: 11C12 monoclonal anti-EphA5 antibody (antibody, mouse IgG1, V domains shown)
VH: EVTLKESGGGLVQPGGSRKLSCAASGFTFSTFGIHWVRQAPEKGLEWVAYISGASTTIYYADTVKGRFTISRDNPKNTLFLQMTSLRSEDTAMYYCARYGTSFPYGLDYWGQGTSVTVSS
VL: DIVMTQSPGSLAVSLGQRATISCKASQSVDYDGDSYMNWYQQKPGQPPKLLIYGASNLESGIPARFSGSGSGTDFTLNIHPVEEEDAASYYCQQSNEDPFTFGSGTKLEIK
notes: Murine IgG1 monoclonal antibody from a hybridoma; also called monoclonal antibody 11C12; 11C12 antibody
**Q.** Does B1 bind?
**A.** binds
